Measured values published in IntAct's records for PubMed 31515488.

B1: UBX domain-containing protein 2B (Homo sapiens), Q14CS0 (parent)
chain: MAEGGGPEPGEQERRSSGPRPPSARDLQLALAELYEDEVKCKSSKSNRPKATVFKSPRTPPQRFYSSEHEYSGLNIVRPSTGKIVNELFKEAREHGAVPLNEATRASGDDKSKSFTGGGYRLGSSFCKRSEYIYGENQLQDVQILLKLWSNGFSLDDGELRPYNEPTNAQFLESVKRGEIPLELQRLVHGGQVNLDMEDHQDQEYIKPRLRFKAFSGEGQKLGSLTPEIVSTPSSPEEEDKSILNAVVLIDDSVPTTKIQIRLADGSRLIQRFNSTHRILDVRNFIVQSRPEFAALDFILVTSFPNKELTDESLTLLEADILNTVLLQQLK
partner: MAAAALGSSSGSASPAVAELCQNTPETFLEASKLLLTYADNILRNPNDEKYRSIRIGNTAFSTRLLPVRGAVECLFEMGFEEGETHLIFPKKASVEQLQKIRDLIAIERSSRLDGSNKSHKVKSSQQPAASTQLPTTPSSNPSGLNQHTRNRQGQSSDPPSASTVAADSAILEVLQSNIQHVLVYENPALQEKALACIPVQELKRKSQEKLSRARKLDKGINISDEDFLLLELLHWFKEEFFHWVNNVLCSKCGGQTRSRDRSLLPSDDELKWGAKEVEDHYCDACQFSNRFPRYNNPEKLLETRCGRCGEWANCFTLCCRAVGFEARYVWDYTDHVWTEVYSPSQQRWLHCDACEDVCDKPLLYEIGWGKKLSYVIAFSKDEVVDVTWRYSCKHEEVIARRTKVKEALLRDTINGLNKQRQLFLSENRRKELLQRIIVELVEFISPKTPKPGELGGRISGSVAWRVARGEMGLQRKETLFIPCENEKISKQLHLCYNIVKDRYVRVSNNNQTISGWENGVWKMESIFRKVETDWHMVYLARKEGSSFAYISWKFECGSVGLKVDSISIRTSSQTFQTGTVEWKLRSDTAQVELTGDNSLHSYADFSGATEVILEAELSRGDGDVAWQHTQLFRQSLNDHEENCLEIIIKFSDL
B2: Notch homolog 2 N-terminal-like protein A (Homo sapiens), Q7Z3S9 (parent)
chain: MCVTYHNGTGYCKCPEGFLGEYCQHRDPCEKNRCQNGGTCVAQAMLGKATCRCASGFTGEDCQYSTSHPCFVSRPCLNGGTCHMLSRDTYECTCQVGFTGKECQWTDACLSHPCANGSTCTTVANQFSCKCLTGFTGQKCETDVNECDIPGHCQHGGTCLNLPGSYQCQCLQGFTGQYCDSLYVPCAPSPCVNGGTCRQTGDFTFECNCLPETVRRGTELWERDREVWNGKEHDEN
partner: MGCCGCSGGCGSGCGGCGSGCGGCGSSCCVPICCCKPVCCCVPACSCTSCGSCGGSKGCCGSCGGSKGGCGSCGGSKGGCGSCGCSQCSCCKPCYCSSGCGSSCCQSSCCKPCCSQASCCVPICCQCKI
B3: Transcription factor 12 (Homo sapiens), Q99081-3 (parent)
chain: MNPQQQRMAAIGTDKELSDLLDFSAMFSPPVNSGKTRPTTLGSSQFSGSGIDERGGTTSWGTSGQPSPSYDSSRGFTDSPHYSDHLNDSRLGAHEGLSPTPFMNSNLMGKTSERGSFSLYSRDTGLPGCQSSLLRQDLGLGSPAQLSSSGKPGTAYYSFSATSSRRRPLHDSAALDPLQAKKVRKVPPGLPSSVYAPSPNSDDFNRESPSYPSPKPPTSMFASTFFMQDGTHNSSDLWSSSNGMSQPGFGGILGTSTSHMSQSSSYGNLHSHDRLSYPPHSVSPTDINTSLPPMSSFHRGSTSSSPYVAASHTPPINGSDSILGTRGNAAGSSQTGDALGKALASIYSPDHTSSSFPSNPSTPVGSPSPLTGTSQWPRPGGQAPSSPSYENSLHSLKNRVEQQLHEHLQDAMSFLKDVCEQSRMEDRLDRLDDAIHVLRNHAVGPSTSLPAGHSDIHSLLGPSHNAPIGSLNSNYGGSSLVASSRSASMVGTHREDSVSLNGNHSVLSSTVTTSSTDLNHKTQENYRGGLQSQSGTVVTTEIKTENKEKDENLHEPPSSDDMKSDDESSQKDIKVSSRGRTSSTNEDEDLNPEQKIEREKERRMANNARERLRVRDINEAFKELGRMCQLHLKSEKPQTKLLILHQAVAVILSLEQQVRERNLNPKAACLKRREEEKVSAVSAEPPTTLPGTHPGLSETTNPMGHM
partner: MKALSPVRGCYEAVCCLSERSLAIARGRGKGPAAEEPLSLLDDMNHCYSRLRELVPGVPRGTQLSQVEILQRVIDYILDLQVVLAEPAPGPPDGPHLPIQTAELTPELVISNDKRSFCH
B4: Myotubularin-related protein 9 (Homo sapiens), Q96QG7 (parent)
chain: MEFAELIKTPRVDNVVLHRPFYPAVEGTLCLTGHHLILSSRQDNTEELWLLHSNIDAIDKRFVGSLGTIIIKCKDFRIIQLDIPGMEECLNIASSIEALSTLDSITLMYPFFYRPMFEVIEDGWHSFLPEQEFELYSSATSEWRLSYVNKEFAVCPSYPPIVTVPKSIDDEALRKVATFRHGGRFPVLSYYHKKNGMVIMRSGQPLTGTNGRRCKEDEKLINATLRAGKRGYIIDTRSLNVAQQTRAKGGGFEQEAHYPQWRRIHKSIERYHILQESLIKLVEACNDQTHNMDRWLSKLEASNWLTHIKEILTTACLAAQCIDREGASILIHGTEGTDSTLQVTSLAQIILEPRSRTIRGFEALIEREWLQAGHPFQQRCAQSAYCNTKQKWEAPVFLLFLDCVWQILRQFPCSFEFNENFLIMLFEHAYASQFGTFLGNNESERCKLKLQQKTMSLWSWVNQPSELSKFTNPLFEANNLVIWPSVAPQSLPLWEGIFLRWNRSSKYLDEAYEEMVNIIEYNKELQAKVNILRRQLAELETEDGMQESP
partner: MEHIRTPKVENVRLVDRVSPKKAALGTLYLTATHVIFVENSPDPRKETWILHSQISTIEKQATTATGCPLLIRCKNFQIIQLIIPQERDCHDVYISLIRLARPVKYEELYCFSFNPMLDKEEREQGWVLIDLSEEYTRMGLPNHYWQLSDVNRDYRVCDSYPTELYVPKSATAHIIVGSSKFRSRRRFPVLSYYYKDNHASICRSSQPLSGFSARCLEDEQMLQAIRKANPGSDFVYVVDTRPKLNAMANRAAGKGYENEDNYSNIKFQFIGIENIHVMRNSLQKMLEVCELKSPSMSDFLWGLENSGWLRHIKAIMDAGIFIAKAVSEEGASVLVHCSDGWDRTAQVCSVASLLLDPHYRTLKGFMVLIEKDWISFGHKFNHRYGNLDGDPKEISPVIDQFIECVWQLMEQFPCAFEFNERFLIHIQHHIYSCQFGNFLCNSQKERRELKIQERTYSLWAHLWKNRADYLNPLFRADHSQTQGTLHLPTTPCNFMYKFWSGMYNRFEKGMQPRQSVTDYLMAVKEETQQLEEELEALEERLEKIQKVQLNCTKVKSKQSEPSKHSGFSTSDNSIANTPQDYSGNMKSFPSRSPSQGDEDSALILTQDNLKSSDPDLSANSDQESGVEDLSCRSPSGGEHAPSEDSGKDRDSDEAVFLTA

Variants of: B1
Settings: with ngly1_human NGLY1, Q96IV0
With MAEGGGPEPGEQERRSSGPRPPSARDLQLALAELYEDEVKCKSSKSNRPKATVFKSPRTPPQRFYSSEHEYSGLNIVRPSTGKIVNELFKEAREHGAVPLNEATRASGADKSKSFTGGGYRLGSSFCKRSEYIYGENQLQDVQILLKLWSNGFSLDDGELRPYNEPTNAQFLESVKRGEIPLELQRLVHGGQVNLDMEDHQDQEYIKPRLRFKAFSGEGQKLGSLTPEIVSTPSSPEEEDKSILNAVVLIDDSVPTTKIQIRLADGSRLIQRFNSTHRILDVRNFIVQSRPEFAALDFILVTSFPNKELTDESLTLLEADILNTVLLQQLK [D109A] the “effect of a mutation on the interaction” value was “with no effect”.

Variants of: B2
Settings: with kra56_human KRTAP5-6, Q6L8G9
R74Q was tested, and the “effect of a mutation on the interaction” value was “with no effect”. For A115T, the “effect of a mutation on the interaction” value was “with no effect”.

Variants of: B3
Settings: with id3_human ID3, Q02535
In the case of S446F, the “effect of a mutation on the interaction” value is reported as “with no effect”. R74G was tested, and the “effect of a mutation on the interaction” value was “with no effect”. For A155T, the “effect of a mutation on the interaction” value was “with no effect”. Y120C was tested, and the “effect of a mutation on the interaction” value was “with no effect”.

Variants of: B4
Settings: with mtmr7_human MTMR7, Q9Y216
For MEFAELIKTPRVDNVVLHRPFYPAVEGTLCLTGHHLILSSRQDNTEELWLLHSNIDAIDKRFVGSLGTIIIKCKDFRIIQLDIPGMEECLNIASSIEALSTLDSITLMYPFFYRPMFEVIEDGWHCFLPEQEFELYSSATSEWRLSYVNKEFAVCPSYPPIVTVPKSIDDEALRKVATFRHGGRFPVLSYYHKKNGMVIMRSGQPLTGTNGRRCKEDEKLINATLRAGKRGYIIDTRSLNVAQQTRAKGGGFEQEAHYPQWRRIHKSIERYHILQESLIKLVEACNDQTHNMDRWLSKLEASNWLTHIKEILTTACLAAQCIDREGASILIHGTEGTDSTLQVTSLAQIILEPRSRTIRGFEALIEREWLQAGHPFQQRCAQSAYCNTKQKWEAPVFLLFLDCVWQILRQFPCSFEFNENFLIMLFEHAYASQFGTFLGNNESERCKLKLQQKTMSLWSWVNQPSELSKFTNPLFEANNLVIWPSVAPQSLPLWEGIFLRWNRSSKYLDEAYEEMVNIIEYNKELQAKVNILRRQLAELETEDGMQESP [S126C], the “effect of a mutation on the interaction” value was “with no effect”.

Variants of: B4
Settings: with mtmr7_human MTMR7, Q9Y216
Remark: another data set of the same source
For MEFAELIKTPRVDNVVLHRPFYPAVEGTLCLTGHHLILSSRQDNTEELWLLHSNIDAIDKRFVGSLGTIIIKCKDFRIIQLDIPGMEECLNIASSIEALSTLDSITLMYPFFYRPMFEVIEDGWHSILPEQEFELYSSATSEWRLSYVNKEFAVCPSYPPIVTVPKSIDDEALRKVATFRHGGRFPVLSYYHKKNGMVIMRSGQPLTGTNGRRCKEDEKLINATLRAGKRGYIIDTRSLNVAQQTRAKGGGFEQEAHYPQWRRIHKSIERYHILQESLIKLVEACNDQTHNMDRWLSKLEASNWLTHIKEILTTACLAAQCIDREGASILIHGTEGTDSTLQVTSLAQIILEPRSRTIRGFEALIEREWLQAGHPFQQRCAQSAYCNTKQKWEAPVFLLFLDCVWQILRQFPCSFEFNENFLIMLFEHAYASQFGTFLGNNESERCKLKLQQKTMSLWSWVNQPSELSKFTNPLFEANNLVIWPSVAPQSLPLWEGIFLRWNRSSKYLDEAYEEMVNIIEYNKELQAKVNILRRQLAELETEDGMQESP [F127I], the “effect of a mutation on the interaction” value was “with no effect”.
